Values joined by “and” are separate entries in the source; they are usually repeats but may differ in a detail not shown here. Identical values can stand only once. Ends that are not written are not given here. Me3 = trimethyl (trimethylated lysine)
Experiments:
[1] = molecular target: Histone H3K4me3 (Homo sapiens) (UniProt P68431); test: ITC; conditions: cited from earlier work
His-Spindlin1(49–262) [2] = molecular target: T1, His-Spindlin1(49–262) (human, UniProt Q9Y657 49-262); test: fluorescent thermal shift assay (FTSA); 0.1 mg/ml His-Spindlin1(49–262), 5x SYPRO Orange, dilution series of H3(1–12)K4me3; 100 mM Hepes pH 7.5, 150 mM NaCl; KD by regression of Tm against ligand concentration; conditions: both partners purified
T1 construct: Spindlin1, human, amino acids 49-262; Modified pET15b with a minimal, non-cleavable hexahistidine tag; also called recombinant Spindlin1; source: E. coli BL21(DE3) codon plus, purified (Talon beads, gel filtration on superdex S75)

His-JMJD2C(874–988) [3] = molecular target: T2, His-JMJD2C(874–988) (murine, UniProt Q8VCD7 874-988); test: AlphaScreen or HTRF; AlphaLISA displacement assay with His-JMJD2C(874–988) and biotin-H3(1–23)K4me3 (methods: 300 nM and 25 nM; legend: 5 μM and 200 nM), dilution series of unlabeled H3(1–12)K4me3; beads 0.02 mg/ml; conditions: both partners purified
T2 construct: JMJD2C (lysine demethylase), murine, amino acids 874-988, double Tudor domain; Modified pET15b with a minimal, non-cleavable hexahistidine tag; also called JMJD2C-Td; JMJD2C-TD; source: E. coli BL21(DE3) codon plus, purified (Talon resin, gel filtration)
T2 sequence (looked up): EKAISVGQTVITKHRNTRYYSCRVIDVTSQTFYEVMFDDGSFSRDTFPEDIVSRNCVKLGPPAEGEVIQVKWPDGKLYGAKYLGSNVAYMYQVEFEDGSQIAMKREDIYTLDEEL

[4] = molecular target: T3, Spindlin1, expressed by HL-60 suspension cells (human (endogenous in HL-60), UniProt Q9Y657 1-262); test: cellular thermal shift assay (CETSA) on cell lysate; HL-60 cell lysate treated with 500 μM H3(1–12)K4me3 or, as control, H3(1–21)K4me0 at 37°C for 60 min; heated 3 min at a temperature gradient; soluble Spindlin1 by Western blot; apparent Tagg; conditions: one partner purified
T3 construct: Spindlin1, endogenous in HL-60 cells, detected by Western blot with an anti-Spindlin1 antibody; also called Spindlin1 (CETSA); source: endogenous, HL-60 cell lysate

His-Spindlin1(49–262) [5] = molecular target: T1, His-Spindlin1(49–262); test: fluorescence polarisation; FP displacement assay: 100 nM His-Spindlin1(49–262), 10 nM FL-H3K4me3, dilution series of unlabeled competitor; incubation 15, 30, 60 and 90 min (IC50 values in that order); 25°C; conditions: both partners purified
His-Spindlin1(49–262) [6] = molecular target: T1, His-Spindlin1(49–262); test: AlphaScreen or HTRF; AlphaLISA displacement assay: 15 nM His-Spindlin1(49–262), 30 nM biotin-H3(1–23)K4me3, dilution series of unlabeled competitor; incubation 15, 30, 60 and 90 min (IC50 values in that order); 25 mM Hepes pH 7.5, 100 mM NaCl, 1 mg/ml BSA, 0.05% CHAPS; 25°C; conditions: both partners purified
His-JMJD2C(874–988) [7] = molecular target: T2, His-JMJD2C(874–988); test: fluorescent thermal shift assay (FTSA); 0.4 mg/ml His-JMJD2C(874–988), 5x SYPRO Orange, dilution series of H3(1–12)K4me3; KD by regression of Tm against ligand concentration; conditions: both partners purified
His-JMJD2C(874–988) [8] = molecular target: T2, His-JMJD2C(874–988); test: fluorescence polarisation; FP displacement assay: 10 μM His-JMJD2C(874–988), 15 nM FL-H3K4me3, dilution series of unlabeled H3(1–12)K4me3; conditions: both partners purified
His-Spindlin1(49–262) [9] = molecular target: T1, His-Spindlin1(49–262); test: fluorescence polarisation; His-Spindlin1(49–262) 0.06 to 750 nM titrated against 10 nM FL-H3K4me3; 60 min at 25°C; corrected for unspecific binding with 10 μM unlabeled H3(1–12)K4me3; one-site binding fit; 25 mM Hepes pH 7.5, 100 mM NaCl, 1 mg/ml BSA, 0.05% CHAPS; conditions: both partners purified
His-JMJD2C(874–988) [10] = molecular target: T2, His-JMJD2C(874–988); test: fluorescence polarisation; KD determination of the binding of FL-H3K4me3 to JMJD2C-Td; same optimization route as for Spindlin1; conditions: both partners purified

T1 sequence (Q9Y657 49-262): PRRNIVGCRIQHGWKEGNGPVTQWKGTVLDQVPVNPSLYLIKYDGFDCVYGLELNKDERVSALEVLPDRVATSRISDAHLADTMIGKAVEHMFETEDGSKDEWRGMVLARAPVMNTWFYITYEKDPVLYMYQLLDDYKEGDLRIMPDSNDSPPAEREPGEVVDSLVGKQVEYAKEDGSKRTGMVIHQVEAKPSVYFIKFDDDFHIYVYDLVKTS
T3 sequence (Q9Y657 whole entry): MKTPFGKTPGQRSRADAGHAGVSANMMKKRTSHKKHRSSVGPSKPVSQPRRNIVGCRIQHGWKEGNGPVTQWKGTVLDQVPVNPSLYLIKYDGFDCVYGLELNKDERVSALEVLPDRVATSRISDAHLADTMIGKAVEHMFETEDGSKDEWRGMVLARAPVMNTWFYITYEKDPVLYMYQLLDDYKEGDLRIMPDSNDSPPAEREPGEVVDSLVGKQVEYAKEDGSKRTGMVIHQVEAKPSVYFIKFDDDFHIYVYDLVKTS

Spindlin1 (from UniProt Q9Y657)
Kd [1]: 250 nM

B1: H3(1–12)K4me3 (peptide)
peptide: ARTK(Me3)QTARKSTG
notes: histone H3, amino acids 1-12; Free N-terminus (H2N-) and free C-terminus (-COOH) as printed; also called unlabeled H3K4me3 peptide; unlabeled H3(1–12)K4me3; source: synthetic peptide, custom synthesized by Peptide Specialty Laboratories GmbH
Kd (His-Spindlin1(49–262) [2]): 380 nM | IC50 (His-JMJD2C(874–988) [3]): 4500 ± 200 nM | ΔTagg (against lysate treated with H3(1–21)K4me0) [4]: 5.9 °C | IC50 (His-Spindlin1(49–262) [5]): 180 nM and 232 nM and 202 nM and 201 nM | IC50 (His-Spindlin1(49–262) [6]): 118 nM (3×) and 116 nM | Kd (His-JMJD2C(874–988) [7]): 12500 nM and 13300 nM | IC50 (His-JMJD2C(874–988) [8]): 19100 ± 2100 nM

B2: FL-H3K4me3 (peptide)
peptide: ARTKQTARKSTGGK
modifications: trimethylated lysine at position 4; mixed isomers of 5-(and-6)-carboxyfluorescein coupled to K14 side chain
notes: histone H3, N-terminal tail; also called fluorescent probe; fluorescein labeled peptide derived from histone H3; source: synthetic peptide, custom synthesized by Peptide Specialty Laboratories GmbH
Kd (His-Spindlin1(49–262) [9]): 31 nM | Kd (His-JMJD2C(874–988) [10]): 14500 ± 1900 nM
